# In patent publication US20250228951A1, “NOVEL-PEPTIDE-BASED ANTICANCER IMMUNOTHERAPEUTIC AGENT” (TWINPIG BIOLAB INC., priority 2022, published 2025):
# How the values were obtained:
# [1] = target: ITGB2 protein immobilised on the SPR sensor chip (UniProt P05107)
# M2 macrophages [2] = assay: Flow cytometry of FITC-conjugated melittin on THP-1-derived M0, M1 and M2 macrophages; format: cell-based, human; details: 50 nM FITC-conjugated melittin, 1 hour; M2 macrophages compared to the other macrophage types
# Procedure: To confirm whether the melittin fabricated in Example 1 specifically bound to M2 tumor-associated macrophages (M2 TAMs), a human monocyte cell line THP-1 was differentiated into M0, M1, and M2 macrophages, and treated with FITC-conjugated melittin, and then confirmed by flow cytometry. Specifically, THP-1 cells were treated with 100 nM phorbol 12-myristate 13-acetate (PMA) at 37° C. for 24 hours (M0 macrophages), and the differentiated M0 macrophages were incubated with 100 nM LPS and 20 ng/ml IFN-γ at 37° C. for 72 hours to be differentiated into M1 macrophages (M1), and incubated with 20 ng/ml IL-4 and IL-13 at 37° C. for 72 hours to be differentiated into M2 macrophages (M2). The differentiated cells were treated with 50 nM FITC-conjugated melittin for 1 hour, detected with BD FACS CantoII instruments (BD biosciences, San Jose, CA, USA), and analyzed with FlowJo software (BD biosciences).
# [3] = tested on: M2 macrophages in which ITGB2 expression was suppressed by Crispr/cas9; assay: CCK-8 cell viability in M2 macrophages with ITGB2 expression suppressed by Crispr/cas9; format: cell-based, human; details: Melittin-dKLA 1 μM, ITGB2 knocked down M2 macrophages
# Procedure: As a cell model used to confirm whether apoptosis was induced through ITGB2 in M2 macrophages, a cell model in which the expression of ITGB2 was suppressed in M2 macrophages was fabricated using Crispr/cas9. Specifically, cells differentiated into M2 macrophages were cultured in an Opti-MEM medium. The Crispr/cas9 was mixed with Cas9 protein V2 (Thermo Fisher scientific) and gRNA (Genscript; ITGB2; Table 7) of a CRISPRMAX™ Reagent kit (Thermo Fisher scientific) and a Cas9 Plus™ Reagent (Thermo Fisher scientific), and a CRISPRMAX™ Reagent was diluted in the Opti-MEM medium, mixed together, and reacted for 5 to 10 minutes, and then added to cells differentiated into M2 macrophages and cultured at 37° C. for 2 to 3 days. Thereafter, the mRNA expression level of ITGB2 was confirmed.
# To confirm whether Melittin-dKLA bound to ITGB2 to induce apoptosis in M2 macrophages, Melittin-dKLA (1 μM) was treated for 24 hours to M2 macrophages in which ITGB2 expression was suppressed by Crispr/cas9 fabricated in Example 7-1 above, and cell viability was analyzed using a CCK-8 assay. Specifically, Melittin-dKLA (1 μM) reacted with ITGB2 knockdown macrophages fabricated in Example 7-1 above for 1 hour. After the reaction, the medium was replaced and cultured at 37° C. for 24 hours. […] Absorbance was measured at 450 nm using a microplate reader (Molecular Devices). […]
# M2 macrophages [4] = assay: CCK-8 cell viability in M2 macrophages; format: cell-based, human; details: Melittin-dKLA 1 μM, control M2 macrophages
# Procedure: To confirm whether Melittin-dKLA bound to ITGB2 to induce apoptosis in M2 macrophages, Melittin-dKLA (1 μM) was treated for 24 hours to M2 macrophages in which ITGB2 expression was suppressed by Crispr/cas9 fabricated in Example 7-1 above, and cell viability was analyzed using a CCK-8 assay. Specifically, Melittin-dKLA (1 μM) reacted with ITGB2 knockdown macrophages fabricated in Example 7-1 above for 1 hour. After the reaction, the medium was replaced and cultured at 37° C. for 24 hours. To determine cell viability, a CCK-8 reagent (Enzo Life Sciences) was added in 1/10 of the medium and reacted at 37° C. for 3 hours. Absorbance was measured at 450 nm using a microplate reader (Molecular Devices).
# To confirm whether TB511 (TAMpep826-dKLA) induced apoptosis through ITGB2 in M2 macrophages, TB511 reacted with M2 macrophages in which ITGB2 expression was suppressed by Crispr/cas9 fabricated in Example 7-1.
# Chain of ITGB2 protein immobilised on the SPR sensor chip (P05107 23-700 limits assumed): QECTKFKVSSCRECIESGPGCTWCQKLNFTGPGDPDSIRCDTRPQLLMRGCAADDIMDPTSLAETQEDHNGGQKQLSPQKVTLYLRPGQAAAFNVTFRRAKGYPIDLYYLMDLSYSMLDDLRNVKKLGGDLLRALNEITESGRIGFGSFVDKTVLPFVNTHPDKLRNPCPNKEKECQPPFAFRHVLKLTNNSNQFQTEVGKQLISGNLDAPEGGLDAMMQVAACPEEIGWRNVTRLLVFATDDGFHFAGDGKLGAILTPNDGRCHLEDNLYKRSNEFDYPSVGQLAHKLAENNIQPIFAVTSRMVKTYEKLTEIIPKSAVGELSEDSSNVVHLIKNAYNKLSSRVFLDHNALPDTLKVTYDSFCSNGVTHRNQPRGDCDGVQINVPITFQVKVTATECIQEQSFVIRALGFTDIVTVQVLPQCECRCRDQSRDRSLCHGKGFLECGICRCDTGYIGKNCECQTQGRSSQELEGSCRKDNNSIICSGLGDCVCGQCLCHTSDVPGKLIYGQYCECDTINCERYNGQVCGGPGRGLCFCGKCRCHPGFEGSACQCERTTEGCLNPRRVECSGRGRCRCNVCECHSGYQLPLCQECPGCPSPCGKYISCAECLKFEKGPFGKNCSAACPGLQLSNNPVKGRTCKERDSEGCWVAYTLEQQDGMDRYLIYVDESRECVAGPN
compound,measurement,setting,value
Melittin-dKLA (peptide),Ka,[1],1.27e+07 M⁻¹
same,Kd,[1],78.6 nM
same,koff,[1],0.00381 s⁻¹
same,kon,[1],48500 M⁻¹ s⁻¹
CC[C@H](C)[C@H](NC(=O)CN)C(=O)NCC(=O)N[C@@H](C)C(=O)N[C@H](C(=O)N[C@@H](CC(C)C)C(=O)N[C@@H](CCCCN)C(=O)N[C@H](C(=O)N[C@@H](CC(C)C)C(=O)N[C@H](C(=O)N[C@H](C(=O)NCC(=O)N[C@@H](CC(C)C)C(=O)N1CCC[C@H]1C(=O)N[C@@H](C)C(=O)N[C@@H](CC(C)C)C(=O)N[C@H](C(=O)N[C@@H](CO)C(=O)N[C@@H](Cc1c[nH]c2ccccc12)C(=O)N[C@H](C(=O)N[C@@H](CCCCN)C(=O)N[C@@H](CCCNC(=N)N)C(=O)N[C@@H](CCCCN)C(=O)N[C@@H](CCCNC(=N)N)C(=O)N[C@@H](CCC(N)=O)C(=O)N[C@@H](CCC(N)=O)C(N)=O)[C@@H](C)CC)[C@@H](C)CC)[C@@H](C)O)[C@@H](C)O)C(C)C)C(C)C [Melittin],FITC-positive cells,M2 macrophages [2],significantly increased
"GIGAVLKVLTTGLPALISWIKRKRQQ-GGGGS-d[KLAKLAKKLAKLAK] (SEQ ID NO: 5), peptide with linker and drug dKLA attached to melittin [Melittin-dKLA]",cell viability,[3],the decrease in cell viability by Melittin-dKLA was suppressed
same,cell viability,M2 macrophages [4],significantly reduced
